We go through 21 variants from the RNAGym collection of RNA variant scans (doi:10.1073/pnas.2313332121).

B1: TPR t1 (parent)
chain: GACCAAUCUGCCCUCAGAGCUCGAGAACAUCUUCGGAUGCAGAGGAGGCAGGCUUCGGUGGCGCGAUAGCGCCAACGUCCUCAACCUCCAAUGCAUCCCACCACAUGAUGAUGCCUGAAGAGCCUUGGUUUUUUG

Variants of B1 are the subject of the data set. Description: polymerase ribozyme fitness, log enrichment relative to wild type (log ratio); higher = more active; in vitro selection for triplet polymerase activity. In a few lines: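 Input and output libraries were sequenced on Illumina after a single in vitro selection round, run in triplicate on PCR-built, transcribed mutant libraries of each subunit of a heterodimeric triplet polymerase ribozyme. Selection annealed libraries to a biotinylated primer, the partner subunit and triplets, incubated them frozen at −7 °C, then gel-excised extended constructs for streptavidin-bead capture and RT-PCR. Genotypes with ≥10 input reads and ≥1 read per output were kept. Fitness is the logarithm, taken in base 2, of genotype enrichment divided by wild-type enrichment, using inverse-variance-weighted replicate averages.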
As for GACCAAUCGGCCUUCAGAGCUCGAGAACAUCUUCGGAUGCAGAGGAGGCAGGCUUCGGUGGCGCGAUAGCGCCAACGUCCUCAACCUCCAAUGCAUCCCACCAAAUGAUGAUGCCUGAAGAGCCUUGGUUUUUUG [U9G C13U C104A], the “polymerase ribozyme fitness (log ratio)” value was -1.55.
With GACCAAUCGGCCCUCAGAGCUGGAGAACAUCUUGGGAUGCAGAGGAGGCAGGCUUCGGUGGCGCGAUAUCGCCAACGUCCUCAACCUCCAAUGCAUCCCACCACAUGAUGAUGCCUGAAGAGCCUUGGUUUUUUG [U9G C22G C34G G69U] the figure was -3.72; with GACCAAUCGGCCCUCAGAGCUCGAGAACAUCUUUGGAUGCAGAGGAGGCAGGCUUCGGUGGCGCGAUGGCGCCAACGCCCUCAACCUCCAAUGCAUUCCACCACAUGAUGUUGCCUGAAGAGCCUUGGUUUUUUG [U9G C34U A68G U78C C97U A111U], -6.62; with GACCAAUCGGCCCUCAGAGCUCGAGAACAUAUUCGGAUGCAGAGGCGGCAGGCUUCGGUGGCGCGAUAGCACCAACGUCCUCAACCUCCAAUGCAUCCCACCACAUGAUAAUGCCUGAAGAGCCUUGGUUUUUUG [U9G C31A A46C G71A G110A], -6.51.
On to GACCAAUCGGCCCUCAGAGCUCGAGAACAUCUUCGGAUGUAGAGGAGGCAGGCAUCGGUGGCGCGAUAGCGCCAACGUCCUCAAACUCCAAUGCAUCCCACCACAUGAUGAUGCCUGAAGAGCCUUGGUUUUUUG [U9G C40U U54A C85A], for which the “polymerase ribozyme fitness (log ratio)” value is -1.24.
With GACCAAUCGGCCCUCAGAGCUCGAGAACAUCUUAGGAUGCGGAGGAGGCAGGCUUCGGUGGCGCGAUAGCGCCAACGUCCUCAACCUCCAAUGCAUCCCACCACAUGAUGAUGCCUGAAGAGCCUUGGUUUUUUG [U9G C34A A41G] the figure was -3.4; with GACCAAUCGGCCCUCAGAGCUAGAGAACAUCUUAGGAUGCAGAGGAGGCAGGCUUCGGUGGCGCGAUAGCGCCAACGUCCUUAACCUCCAAUGCAUCCCACCACAUGAUGAUGCCUGAAGAGCCUUGGUCUUUUG [U9G C22A C34A C82U U130C], -6.39; with GACCAAUCGGCCCUCAGAGCUCGAGAAUAUCUUCGGAUGCAGAGGAGGCAGGCUUCGGUGGCGCGAUAGCGCCAACGUCCUCAACCUCCAAUGCAUCCCACCACAUGAUGAUGCCUCAAGAGCCUUGGUUGUUUG [U9G C28U G117C U131G], -4.94.
Then GACCAAUCGGCCCUCAGAGCUCGAGAACAUCUUCGGAUGCAGAGGAGGCAGGAUUCGGUGGCGCGAUAGCUCCAACGUCCUCAACUUCCAAUGCAUCCCUCCACAUGAUUAUGCCUGAAGAGCCUUGGUUUUUUG [U9G C53A G71U C86U A100U G110U], with -4.22; and GACCAAUCGGCCUUAAGAGCUCGAGAACAUCUUCGGAUGUAGAGGAGGCAGGCUUCGGUGCCGCGAUAGCGCCAACGUCCUCAACCUCCAAUGCAUCCCACCACAUGAUGAUGCCUGAAGAGCCUUGGUUUUUUG [U9G C13U C15A C40U G61C], with -2.7.
With GACCAAUCGGCCCUCAGAGCUCGAGAACAUGUUCGGAUGCAGAGGAGGCAGGCUUCGGUGGCGCGAUAGCGCCAACGUCCUCAACCACCAAUGCAUCCCACCACAUGAUGAUGACUGAAGAGCCUUGGUUUUUUG [U9G C31G U87A C114A] the figure was -5.66.
Take GACCAAUCGGCCCUCAGAGCUCGAGAACAUCUUCGGAUGCAGAGGAGGCAGGGUUCGGUGGCGCGAUAGCGCCAACGUCCUCAACCUCCAAUGCAUCCCACCACAUGAUGAUGCAUGAAGAGCCUUUGUUUUUUG [U9G C53G C115A G127U]: the “polymerase ribozyme fitness (log ratio)” value is -0.417.
Then GACCAAUCGGCCCUCAGAGCUCGAGAACAUCUUCGGAUGGAGAGGAGGCAGGGUUCGGUGGCGCGAUAGCGCCAACGUCCUCAACCUCCAAUGCAUCCCACCACAUGAUGAUGCCUGAAGAGCCUUGGUGUUUUG [U9G C40G C53G U130G], with -1.2; and GACCAAUCGGCCCUUAGAGCUCGAGAACAUCUUCGGAUGCAGAGGAGGCAGGCUUCGGUGGCGCGAUAGCGCCAACGUCCUCAACCUCCGAUGCAUCCCACCACAUGAUGAUGCCUGAAGAGCAUUGGUUUUUUG [U9G C15U A90G C124A], with 1.55.
With GACCAAUCGGCCAUCAGAGCUCGAGAACAUCUUCGGAUGCAGAGGAGGCAGGCUUCGGUGGCGCGAUAGCGCCAACGUCCUCAACCUCCAAUGCAUCCCACCACAUGAUAAUGCCUGAAGAGCCUUGGUUUUUUG [U9G C13A G110A] the figure was -1.62; with GACCAAUCGGCCUUCAGAGCUCGAGAACAUCUUCGGAUGCAGAGGAGGCAGGCUUCGGUGGCGCGAUAGCGCCAACGUCCUCAACCUCCAUUGCAUCCCACCACAUGAUGAUACCUGACGAGCCUUGAUUUUUUG [U9G C13U A91U G113A A119C G128A], -4.02; with GACCAAUCGGCCCUCAGAGCUCGAGAACAUCUUCGGAUGCAGAGGAGGCAGGAUUCGGUGGCGCGAUAGCGCCAACGUCCUCAACCUCCAAUGCAUCCCACCACAUGAUGAUGCCUGAAGAGCCUUGGUUUUUUG [U9G C53A], 0.283.
With GACCAAUCGGCCAUCAGAGCUCGAGAACAUCUUCGGAUGCAGAGGAGGCAGGCUUCGGAGGCGCGAUAGCGCCAACGUCCUCAACCUCCAAUGCAUCCCACCACAUGAUGAUGCCUGAAGAGCCUUGGUUUUUUG [U9G C13A U59A] the figure was -0.0719; with GACCAAUCGGCCCUCAGAGCUCGAGAAAAUCUUCGGAUGCAGAGGAGGCAGGCUUCGGUGGCGCGAUAGCGCCAACGUCCUCAACCUCCAAUGCAUCCCACCACAUGAUGAUGCCUGAAGAGCCUUGGUUUUAUG [U9G C28A U133A], -4.24; with GACCAAUCGGCCCUUAGAGCCCGAGAACAUCUUCGGAUGCAGAGGAGGCAGGCUUCGGUGGCGCGAUAGCGCCAACGUCCUCCACCUCCAAUGCAUCCCACCACAUGAUGAUGCCUGAAGAGCCUUGGUUUUUUG [U9G C15U U21C A83C], -0.505.
For GACCAAUCGGCCCUCAGAGCUCGAGAACAUCUUAGGAUGCAGAGGAGGCAGGCUUCGGUGGCGCGAUAGCGCAAACGUCCUCAACCUCCAAUGCAUCCCACCACAUGAUGAUGCCUGAACAGCCUUGGUUUUUUG [U9G C34A C73A G120C], the “polymerase ribozyme fitness (log ratio)” value is -0.727.
